Reference: patent US20050181476

B1: IRAK-4 (protein)
chain: MNKPITPSTYVRCLNVGLIRKLSDFIDPQEGWKKLAVAIKKPSGDDRYNQFHIRRFEALLQTGKSPTSELLFDWGTTNCTVGDLVDLLIQNEFFAPASLLLPDAVPKTANTLPSKEAITVQQKQMPFCDKDRTLMTPVQNLEQSYMPPDSSSPENKSLEVSDTRFHSFSFYELKNVTNNFDERPISVGGNKMGEGGFGVVYKGYVNNTTVAVKKLAAMVDITTEELKQQFDQEIKVMAKCQHENLVELLGFSSDGDDLCLVYVYMPNGSLLDRLSCLDGTPPLSWHMRCKIAQGAANGINFLHENHHIHRDIKSANILLDEAFTAKISDFGLARASEKFAQTVMTSRIVGTTAYMAPEALRGEITPKSDIYSFGVVLLEIITGLPAVDEHREPQLLLDIKEEIEDEEKTIEDYIDKKMNDADSTSVEAMYSVASQCLHEKKNKRPDIKKVQQLLQEMTAS
E-MyD88S
E-MyD88S, sequence (chain, as listed by the source): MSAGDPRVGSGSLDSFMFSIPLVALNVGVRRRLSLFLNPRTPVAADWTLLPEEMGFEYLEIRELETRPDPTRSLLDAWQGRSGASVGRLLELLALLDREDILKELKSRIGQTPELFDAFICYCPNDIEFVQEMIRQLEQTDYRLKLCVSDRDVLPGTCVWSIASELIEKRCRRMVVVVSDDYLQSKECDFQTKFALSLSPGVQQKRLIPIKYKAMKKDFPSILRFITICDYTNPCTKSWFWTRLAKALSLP
  in vitro phosphorylation of IRAK-1KD induced by IRAK-4 co-expression: in vitro phosphorylation of IRAK-1KD induced by IRAK-4 co-expression was completely inhibited when MyD88S was co-expressed
MyD88
  IRAK-4-induced IRAK-1KD phosphorylation (slower migrating species in SDS-PAGE; in vitro kinase assay): Addition of MyD88, however, significantly enhanced IRAK-4-induced IRAK-1KD phosphorylation
